Source: patent US6770740B1, “Crosslinked DNA condesate compositions and gene delivery methods” (The Regents of the University of Michigan, priority 1999, dated 2004)
Each block holds one substance with its values, some of them ahead of it.

How the values were obtained:
[1] = QELS particle size and zeta potential of peptide DNA condensates, Example 6; format: physicochemical; details: charge ratio 4:1, 50 μg/ml DNA in HBM; for Particle Size (nm): 90°, average and SD of three, No particles formed; for Zeta Potential (mV): average and SD of ten
Method: The particle size and zeta potential of peptide DNA condensates were determined by quasielastic light scattering (QELS) using a Brookhave ZetaPlus™. Particle size analysis was performed in triplicate at a DNA concentration of 50 μg/ml in HBM at a charge ratio of 4:1 and a scattering angle of 90°. Data analysis utilized a multimodal volume distribution option included with the instrument. Zeta potential was also determined using 50 μg/ml peptide DNA condensates prepared at a 4:1 charge ratio in HBM. The reported zeta potential was averaged from ten determinations.

plasmid DNA = experiment: Thiazole orange displacement titration of peptide binding to DNA, Example 6; details: titration across charge ratios 0.25-8
Method: Peptide DNA condensates were prepared by combining 50 μg of DNA in 500 μl of Hepes buffered mannitol (HBM) (5 w/v% mannitol, 5 mM Hepes, pH 7.5) with […] of peptide in 500 μl of HBM while vortexing to form peptide DNA condensates with a calculated primary amine to phosphate charge ratio between 0.25 and 8.0 (NH4^+:PO4). The condensates were allowed to cross-link for 30 min prior to performing physical measurements. The binding of each peptide to DNA was assayed by combining peptide DNA condensates (50 μl) with 950 μl of HBM containing 0.1 μM thiazole orange. The fluorescence of the intercalated dye was measured using an LS50B fluorometer (Perkin Elmer, UK) by exciting at 500 nm while monitoring emission at 530 nm with the slit width set at 15 and 20 nm, respectively. Fluorescence blanks were substracted from all values before data analysis.

[2] = Shear stress stability (salt sonication assay), Example 6; format: physicochemical; details: 30 sec sonication; highest tested 2.5 M
Method: The relative stability of peptide DNA condensates were examined using a salt sonication assay (Adami and Rice, 1999). Peptide DNA condensates (200 μl of 50 μg/ml) were formed as described above, incubated at RT for 30 min and then combined with 0-200 μl of 5 m […] and normalized to 400 μl with HBM to achieve a final sodium chloride concentration of 0, 0.2, 0.4, 0.8, 1.0, 1.5, 2.0 and 2.5 M. Each sample was sonicated for 30 sec with a 100 W Microson™ XL-2000 ultrasonic probe homogenizer (Kontes, Vineland N.J.) with a vibrational amplitude of 5 fragment uncondensed DNA. DNA condensates were digested with 30 μg to trypsin for 12 h at 37° C., electrophoresed on a 1% agarose gel electrophoresed in TEA buffer for 2 h, then visualized by ethidium bromide staining and destaining prior to photography on a transilluminator.

HepG2 cells = experiment: Luciferase gene expression in HepG2 cells, Example 6; format: cell-based; details: HepG2, absence of chloroquine
Method: HepG2 cells (1.5×10^5) were plated on 6×35 mm wells and grown to 50% confluencey in MEM supplemented with 10% FBS, penicillin and streptomycin (100 U/ml), sodium pyruvate (100 mM), and L-glutamine (2 mM). Transfections were performed in MEM (2 ml per 35 mm well) with 2% FBS with and without 80 μM chloroquine. Peptide DNA condensates (10 μg of DNA of 0.2 ml HBM) were added dropwise to triplicate wells. After a 5 h incubation at 37° C., the medium was replaced with MEM supplemented with 10% FBS. After 24 h, cells were washed with ice-cold phosphate buffered saline (calcium and magnesium free) and then treated with 0.5 ml of ice-cold lysis buffer (25 mM) Tris chloride pH 7.8, 1 mM EDTA, 8 mM magnesium chloride, 1% Triton X-100, 1 mM DTT) for 10 min. The cell lysates were scraped, transferred to 1.5 ml microcentrifuge tube, and centrifuged for 7 min at 13,000 g at 4° C. to pellet debris.
Lysis buffer (300 μl), sodium-ATP (4 μl of a 180 mM solution, pH 7, 4° C.) and cell lysate (100 μl, 4° C.) were combined in a test tube, briefly mixed and immediately placed in the luminometer. Luciferase relative light units (RLU) were recorded on a Lumat™ LB 9501 (Berthoid Systems, Germany) with 10 sec integration after automatic injection of 100 μl of 0.5 mM D-luciferin (prepared fresh in lysis buffer without DTT). The RLU were converted into fmol using a standard curve generated by adding a known amount of luciferase (0.01 to 100 fmols with specific activity of 2.5 nU/fmol) to 35 mm wells containing 50% confluent cells and lysis buffer. Protein concentrations were measured by Bradford assay using bovine serum albumin as a standard (Bradford, 1976). […]
LipofectAce™ (Gibco BRL, 1:2.5 w/w dimethyl dioctadecylammonium bromide and dioleoyl phosphatidylethanolamine) was used to mediate gene transaction according to the manufacturer's instructions. […] The cells were incubated for a total of 24 h, harvested and analyzed for luciferase as described above.

[3] = QELS particle size and zeta potential of cross-linking peptide DNA condensates, Example 5; format: physicochemical; details: for Particle Size Mean Diameter, Oxidized, 15° / Particle Size Mean Diameter, Oxidized, 90°: HBM after 2 h incubation, 50 μg/ml DNA, 0.4 nmol peptide per μg DNA; for Particle Size Mean Diameter, Oxidized, 15°: scattering angle 15°; for Particle Size Mean Diameter, Oxidized, 90°: scattering angle 90°; for Particle Size Mean Diameter, Saline: HBM with added saline (0.15 M) after 15 min; for Particle Size Mean Diameter, Reduced: following addition of TCEP (1 mM)
Method: The particle size of each peptide DNA condensate was determined by quasielastic light scattering (QELS) at a scatter angle of both 15° and 90° on a Brookhaven ZetaPlus™ particle sizer. Condensates were prepared at a DNA concentration of 50 μg/ml in 400 μl HBM at a stoichiometry of 0.4 nmol of peptide per μg of DNA corresponding to a charge ratio of approximately 2:1 for each. The mean diameter and population distribution were computed from the diffusion coefficient using a unimodal cummulant analysis supplied by the manufacturer.
The particle size and zeta peptide IV DNA condensates were determined by titrating 7.5 to 37.5 nmol of peptide with 75 μg of DNA in 1.5 ml of HBM to produce 50 μg/ml DNA condensates with charge ratio of 0.5-2.5. The zeta potential was averaged from 10 determines.

[4] = Shear stress stability of cross-linked DNA condensates (salt sonication), Example 5; format: physicochemical; details: charge ratio of 0.9
Method: Peptide DNA condensates (200 μl of 50 μg/ml) were formed and incubated at RT for 30 min and then combined with 0 to 200 μl of 5 M sodium chloride and normalized to 400 μl with HBM to achieve a final sodium chloride concentration of 0, 0.2, 0.4, 0.8, 1.0, 1.5, 2.0, and 2.5 M. Each sample was sonicated for 30 sec with a 100 W Microson™ XL-2000 ultrasonic probe homogenizer (Kontes, Vineland N.J.) with a vibrational amplitude of 6 to fragment uncondensed DNA (Adami et al., 1998). DNA condensates were digested with 30 μg of trypsin for 12 h at 37° C. then electrophoresed on an agarose gel and visualized by ethidium bromide staining.

Substance: Cys-(His-Lys)4-Cys (CHKHKHKHKC) [Peptide 15]
Particle Size (nm) [1]: 205 ± 104 nm
Zeta Potential (mV) [1]: 23 ± 1 mV

charge ratio (NH4+:PO4) needed to condense DNA (thiazole orange fluorescence minimum) (plasmid DNA): > 8
Substance: Cys-(Lys)2-Cys (CKKC) [Peptide 4]

Substance: Cys-(Lys)2-Cys-(Lys)2-Cys (CKKCKKC) [Peptide 9]
sodium chloride concentration up to which DNA condensates are stable [2]: 1.5 M
Particle Size (nm) [1]: 1668 ± 154 nm

Substance: Cys-(Lys)3-Cys-(Lys)3-Cys (CKKKCKKKC) [Peptide 10]
sodium chloride concentration up to which DNA condensates are stable [2]: 2.5 M
Particle Size (nm) [1]: 1375 ± 324 nm
Zeta Potential (mV) [1]: 34 ± 2 mV

Substance: Cys-(Lys)4-Cys-(Lys)4-Cys (CKKKKCKKKKC) [Peptide 11]
sodium chloride concentration up to which DNA condensates are stable [2]: 2.5 M
Particle Size (nm) [1]: 738 ± 154 nm
Zeta Potential (mV) [1]: 31 ± 3 mV

charge ratio (NH4+:PO4) needed to condense DNA (thiazole orange fluorescence minimum) (plasmid DNA): 2
Substance: Cys-(Lys)6-Cys (CKKKKKKC) [Peptide 6]
Particle Size (nm) [1]: 52 ± 4 nm
Zeta Potential (mV) [1]: 37 ± 1 mV

Substance: Cys-His-(Lys)3-His-(Lys)2-His-Cys (CHKKKHKKHC) [Peptide 14]
higher gene expression compared to peptide 7 DNA condensates (HepG2 cells): 4 fold
Particle Size (nm) [1]: 183 ± 64 nm
Zeta Potential (mV) [1]: 20 ± 2 mV

Substance: Cys-His-(Lys)6-His-Cys (CHKKKKKKHC) [Peptide 13]
higher gene expression compared to peptide 7 DNA condensates (HepG2 cells): 4 fold
Particle Size (nm) [1]: 97 ± 40 nm
Zeta Potential (mV) [1]: 31 ± 1 mV

Substance: Cys-His-Lys-His-Lys-(His)2-Lys-His-Cys (CHKHKHHKHC) [Peptide 16]
Particle Size (nm) [1]: 320 ± 169 nm
Zeta Potential (mV) [1]: 23 ± 1 mV

charge ratio (NH4+:PO4) needed to condense DNA (thiazole orange fluorescence minimum) (plasmid DNA): 6-8
Substance: Cys-Lys-Cys-Lys-Cys (CKCKC; printed: Cys-Lys-Cys-Lys-Cys) [Peptide 8]

Particle Size Mean Diameter, Oxidized, 15° [3]: 57 nm
Particle Size Mean Diameter, Oxidized, 90° [3]: 44 nm
Particle Size Mean Diameter, Saline [3]: 324 nm
particle size of electronegative DNA condensates ([3]; charge ratio of 0.9): 62 nm
zeta potential of electronegative DNA condensates ([3]; charge ratio of 0.9): −18 mV
Particle Size Mean Diameter, Reduced [3]: 158 nm
sodium chloride concentration up to which fragmentation was resisted [4]: 2.5 M
Substance: Cys-Trp-Lys5-Cys-Lys5-Cys-Lys5-Cys [Peptide IV]

Substance: Cys-Trp-Lys8-Cys-Lys8-Cys (CWKKKKKKKKCKKKKKKKKC) [III]
Particle Size Mean Diameter, Oxidized, 15° [3]: 26 nm
Particle Size Mean Diameter, Oxidized, 90° [3]: 39 nm
Particle Size Mean Diameter, Saline [3]: 157 nm
Particle Size Mean Diameter, Reduced [3]: 136 nm
